Laboratory results published in the DeepSol protein solubility set.

assay: soluble on expression in E. coli; label from the status in PepcDB or PDB records

Row | Sequence | soluble on expression in E. coli
1 | MGSDKIHHHHHHMNISNSQVNRLRHFVRAGLRSLFRPEPQTAVEWADANYYLPKESAYQEGRWETLPFQRAIMNAMGSDYIREVNVVKSARVGYSKMLLGVYAYFIEHKQRNTLIPAGFVAVFNSDESSWHLVEDHRGKTVYDVASGDALFISELGPLPENVTWLSPEGEFQKWNGTAWVKDAEAEKLFRIREAEETKNSLMQVASEHIAPLQDAVDLEIATEEETSLLEAWKKYRVLLNRVDTSTAPDIEWPTNPVRE | not soluble
2 | MREEDRRGGVKLSLTRLFLHERTVEIILRILKAEENGEKIYPLQISTDIGSPYSYVSKVLGELEKCSLVESRPEGRMRVVSLTPYGKVVASMLRDLYTELEKDFNSRMKLDILKDVYSNANGDVRVYLPVMAELEMLAKSTNDGFVVEEAKKLISEVKRKIEGAK | soluble
3 | MEVYIPSFRHEDSDLERGYTVFKIEVLMNGRKHFVEKRYSEFHALHKKLKKCIKTPEIPSKHVRNWVPKVLEQRRQGLETYLQAVILENEELPKLFLDFLNVRHLPSLPKAESCGSFDETESEESSKLSHQPVLLFLGDPYVLPAASDFPNVVIEGVLHGIFFSHLQPR | not soluble
4 | MGSDKIHHHHHHMPEKKIDGRRKAAVLLVALGPEKAAQVMKHLDEETVEQLVVEIANIGRVTPEEKKQVLEEFLSLAKAKEMISEGGIEYAKKVLEKAFGPERARKIIERLTSSLQVKPFSFVRDTDPVQLVNFLQSEHPQTIAVVLSYLDPPVAAQILGALPEELQTEVLKRIALLERTSPEVVKEIERNLEKKISGFVSRTFSKVGGIDTAAEIMNNLDRTTEKKIMDKLVQENPELADEIRRRMFVFEDILKLDDRSIQLVLREVDTRDLALALKGASDELKEKIFKNMSKRAAALLKDELEYMGPVRLKDVEEAQQKIINIIRRLEEAGEIVIARGGGEELIM | not soluble
5 | EGVAVMLFYSVGELFQDKAIDKAKRNISALLDVRPEKAVVVRSNEIVTVDPRSVLINEIIEIKAGERVPLDGVMLDEVAAFNTAALTGESVPRDISRGEEVLAGMIVTDKVIRMKVTKPFDKSALARILELVE | not soluble
6 | MGSDKIHHHHHHEITDGVVRIGVLNDQTGVYAGLAGPGSVWAAKKAVQDFAPEKHGLKVEIVAADHQNKPDVGASIARRWFDVDKVDAIVDVPTSSVVLAVNQVAKEKNKVMIVTGGGTSDLTGKACTPNAIHWAYDTWALANGTGKAVVKSGGKSWFFVTADYAFGHSLERDTEAVVVKNGGKVLGKVRHPFPGNDFSSYLLQAQASKAQVVGLANAGGDTIGAVKQAAEFGVTAGGQKLAGLLVFSSDVQALGLKAAQGLLLSETWYWDMTDENRKFGKEFAAANNGKFPTMAQAGTYSAVIHYLKAVAAMKADGDGAAVVAKMKAMPTDDKLFGKGSIREDGRKIHPLYLFEVKKPSESKYAGDFYKLIATIPATEAFRPMEEGGCPLIGKKAS | not soluble
7 | MQAPVVTETCQTNEEGEQLVLRLRAPVERPRVTWGAGVIDNEHMGRLKSNCCCIYTPPRVWDDPSTWEPEEHETEHCRGHTLPEKKQKPQGGHGSDKDEDKGNCGCDHC | not soluble
8 | GMGQRSDSDHVMAEATTDKRQGHTRGRTGNDRRTQIIKVATELFREKGYYATSLDDIADRIGFTKPAIYYYFKSKEDVLFAIVNSIVDEALERFHAIAAGPGSPGERIHALLVEHTRTILRNLDANTLFYNERGLLSPEREREMRKREREYTEIMQRLYAEGVATGELLDVDPTVATATLLGAAIWTYRWYDPEGRLSADEVVEQITRLLLNGYRRPA | soluble
9 | MGSSHHHHHHGKTIFVIVPTNEEQVAFLEALAKQDELNFDWQNPPTEPGQPVVILIPSDMVEWFLEMLKAKGIPFTVYVEEGGSENLYFQGGGGGGGSEVEASPRVAMIVLEGFSGTVFHALMESGVHMPNIAHMLSSQKGVWAECATSSQSSCARAVVVENDTSGEVYVSAAAAMTSLFSGVSPREHQVYNGSLESMSMYANTSKMNPSIAKRVKDAGMKVSVVGTSHAINSLSIALGSCSRPGVLDMECAASREELLRASVDEYSGSVQLDCLASSSCNMDTRKMTSPTDPQQCSSGQAEAQFTRHLNSIFGGLAYSTQTQEAAMQNTVADNLDNSLFVFHFDALAVRAASTYLPDFQYNASSKEYVAQVYLLDALVGQVISYVRDRARSQKENWLIVGVSNHGGDDKPYAIPNPVSTSENTIAFFMATYTNNMKRFVTLAPLQRPVTQLDVLPTVLTWLNVVPFDAETSAVTAGTNTTAASPAVEARVMERRHFEGLVQGICSSGASLKNCAL | not soluble
